The values below are quoted from earlier work in PMC7248048.

In series [1] the target is Fibronectin (Homo sapiens) (UniProt P02751).
In series [2] the target is Vitronectin (Homo sapiens) (UniProt P04004).
Chain of UniProt P04004 (P04004 399-478): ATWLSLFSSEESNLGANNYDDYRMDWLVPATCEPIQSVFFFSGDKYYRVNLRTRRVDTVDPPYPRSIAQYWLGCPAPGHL

Chain of UniProt P02751 (P02751 32-2477): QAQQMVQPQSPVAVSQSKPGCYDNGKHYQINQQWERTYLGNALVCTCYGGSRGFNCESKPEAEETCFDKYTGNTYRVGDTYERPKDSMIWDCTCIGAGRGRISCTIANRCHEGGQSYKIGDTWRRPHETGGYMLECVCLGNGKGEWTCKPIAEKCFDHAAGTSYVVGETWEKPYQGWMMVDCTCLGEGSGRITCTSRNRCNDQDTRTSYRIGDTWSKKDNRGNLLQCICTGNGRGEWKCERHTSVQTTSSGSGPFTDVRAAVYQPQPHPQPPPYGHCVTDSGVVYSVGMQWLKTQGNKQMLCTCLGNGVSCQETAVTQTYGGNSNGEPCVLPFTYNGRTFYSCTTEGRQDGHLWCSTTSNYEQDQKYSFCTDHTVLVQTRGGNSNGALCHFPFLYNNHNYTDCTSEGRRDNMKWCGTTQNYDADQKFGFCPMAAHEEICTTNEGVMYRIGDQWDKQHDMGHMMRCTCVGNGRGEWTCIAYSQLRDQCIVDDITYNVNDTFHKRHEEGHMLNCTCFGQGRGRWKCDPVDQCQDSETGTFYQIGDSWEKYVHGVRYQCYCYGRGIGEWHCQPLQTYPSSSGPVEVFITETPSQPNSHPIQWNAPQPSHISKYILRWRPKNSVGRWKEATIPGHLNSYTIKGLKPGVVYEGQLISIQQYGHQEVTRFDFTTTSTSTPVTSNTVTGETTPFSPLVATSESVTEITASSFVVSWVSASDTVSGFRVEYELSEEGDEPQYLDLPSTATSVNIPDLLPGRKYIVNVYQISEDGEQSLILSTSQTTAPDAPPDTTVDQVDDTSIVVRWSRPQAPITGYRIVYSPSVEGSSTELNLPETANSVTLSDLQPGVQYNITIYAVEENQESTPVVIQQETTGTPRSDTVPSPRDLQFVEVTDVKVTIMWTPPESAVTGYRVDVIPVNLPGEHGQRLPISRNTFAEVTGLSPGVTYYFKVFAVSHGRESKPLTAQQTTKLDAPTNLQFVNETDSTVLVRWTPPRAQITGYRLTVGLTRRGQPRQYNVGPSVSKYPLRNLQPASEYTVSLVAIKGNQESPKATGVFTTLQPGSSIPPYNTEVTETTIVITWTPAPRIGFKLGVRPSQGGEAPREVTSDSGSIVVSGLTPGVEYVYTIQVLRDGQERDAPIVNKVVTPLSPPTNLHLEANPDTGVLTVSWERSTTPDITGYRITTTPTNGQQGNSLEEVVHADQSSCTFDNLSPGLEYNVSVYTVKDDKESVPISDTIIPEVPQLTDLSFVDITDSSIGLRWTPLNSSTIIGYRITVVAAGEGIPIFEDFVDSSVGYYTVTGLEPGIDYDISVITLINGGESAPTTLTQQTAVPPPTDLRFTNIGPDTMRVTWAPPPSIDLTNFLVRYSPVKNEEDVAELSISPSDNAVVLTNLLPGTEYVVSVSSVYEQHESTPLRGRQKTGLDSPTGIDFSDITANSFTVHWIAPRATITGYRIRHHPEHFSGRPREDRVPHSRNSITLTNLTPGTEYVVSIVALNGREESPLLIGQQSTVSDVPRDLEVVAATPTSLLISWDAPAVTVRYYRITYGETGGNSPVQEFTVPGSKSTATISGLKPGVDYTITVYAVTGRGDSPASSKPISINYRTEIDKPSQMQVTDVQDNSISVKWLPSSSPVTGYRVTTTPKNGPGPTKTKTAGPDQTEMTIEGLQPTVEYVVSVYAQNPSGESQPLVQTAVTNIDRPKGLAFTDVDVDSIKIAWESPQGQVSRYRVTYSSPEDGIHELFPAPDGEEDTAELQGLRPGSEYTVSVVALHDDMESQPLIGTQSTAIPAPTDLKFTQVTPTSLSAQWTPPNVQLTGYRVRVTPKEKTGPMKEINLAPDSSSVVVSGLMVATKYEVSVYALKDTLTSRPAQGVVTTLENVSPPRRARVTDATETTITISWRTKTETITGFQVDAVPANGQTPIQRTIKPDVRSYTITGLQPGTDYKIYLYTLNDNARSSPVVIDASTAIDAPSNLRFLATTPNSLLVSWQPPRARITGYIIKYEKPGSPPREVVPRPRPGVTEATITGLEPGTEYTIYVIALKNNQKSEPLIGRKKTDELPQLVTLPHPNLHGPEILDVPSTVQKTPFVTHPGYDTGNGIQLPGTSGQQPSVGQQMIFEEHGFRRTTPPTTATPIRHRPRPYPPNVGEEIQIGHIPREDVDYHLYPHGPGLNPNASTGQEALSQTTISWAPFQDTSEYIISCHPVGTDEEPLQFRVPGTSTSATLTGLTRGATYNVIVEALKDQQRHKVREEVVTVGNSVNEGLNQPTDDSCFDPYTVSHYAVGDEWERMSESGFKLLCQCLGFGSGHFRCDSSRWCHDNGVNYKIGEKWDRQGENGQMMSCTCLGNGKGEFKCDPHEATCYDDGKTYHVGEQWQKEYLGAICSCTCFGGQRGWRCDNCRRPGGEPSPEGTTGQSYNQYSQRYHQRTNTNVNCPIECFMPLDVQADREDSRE

A word on the Kd: it is a measure of binding affinity in units of concentration. As for “Haemophilus lipoprotein e (P4) (from UniProt P26093)”, the Kd in series [1] was 10.2 nM; in series [2], 16.5 nM.
